The record followed here is paper PMC4422123, “The peroxisomal protein import machinery displays a preference for monomeric substrates” (Open Biology, 2015).

The target in data set [1] is acyl-CoA oxidase 1 (ACOX1), untagged, in vitro synthesized (mouse) (UniProt Q9R0H0). Briefly: sucrose gradient centrifugation; 35S-labelled protein synthesized (30 min ACOX1, 45 min UOX) and chased for 4 h with cycloheximide without PEX5; 5-30% sucrose in buffer B, 39 000 r.p.m., 29 h, 4°C.
Data set [2] concerns the molecule itself. Described as above.

Consider “acyl-CoA oxidase 1 (ACOX1), untagged, in vitro synthesized (from UniProt Q9R0H0 1-661) (natural protein)”, for which the stoichiometry N – broadly, a count of units in the complex or per binding partner – in data set [1] was determined as 2.

B1: urate oxidase (UOX), untagged, in vitro synthesized (natural protein, mouse, UniProt P25688 1-303, looked up)
chain: MAHYHDNYGKNDEVEFVRTGYGKDMVKVLHIQRDGKYHSIKEVATSVQLTLRSKKDYLHGDNSDIIPTDTIKNTVHVLAKLRGIRNIETFAMNICEHFLSSFNHVTRAHVYVEEVPWKRFEKNGIKHVHAFIHTPTGTHFCEVEQMRNGPPVIHSGIKDLKVLKTTQSGFEGFLKDQFTTLPEVKDRCFATQVYCKWRYQRRDVDFEAIWGAVRDIVLQKFAGPYDKGEYSPSVQKTLYDIQVLSLSQLPEIEDMEISLPNIHYFNIDMSKMGLINKEEVLLPLDNPYGKITGTVKRKLPSRL
modifications: 35S-methionine labelled
notes: mouse urate oxidase, cDNA amplified with primers from the start codon to the stop codon, in pGEM4; also called mUOX; monomeric UOX; source: in vitro translated (rabbit reticulocyte lysate, TnT T7 QuickCoupled kit), not purified
Take B1: in data set [2], the “stoichiometry N” value was found to be 4.
